PMC7042382 (2020)

Biological target: HIV-1 Gag protein peptide on HLA-B*57:01 (human)
Assay: multimer staining

B1: A16.1 (TCR)
alpha TRAV4 TRAJ9 CDR3: CLVGEVRGGFKTIF
beta TRBV4-3 TRBJ2-5 CDR3: CASSQARGGAETQYF
**Q.** Does B1 bind?
**A.** Result: recognises

B2: A16.2 (TCR)
alpha TRAV4 TRAJ20 CDR3: CLVGGEDYKLSF
beta TRBV4-3 TRBJ2-5 CDR3: CASSQARGGAETQYF
**Q.** Does B2 bind?
**A.** Result: recognises
